Source: US20090203610A1, “METHODS OF TREATING OBESITY OR DIABETES USING NT-4/5” (RINAT NEUROSCIENCE CORPORATION, priority 2004, published 2009)

Tests used:
db/db mice = assay: Dose response of NT-4/5 on body weight and percentage change in body weight of db/db mice (Example 2, Tables 16, 17); assay type: in vivo; parameters: body weight: unit not given here; settings: for body weight / percentage change in body weight: db/db mice, 12 week, female, mean
Procedure: Db/db mice maintained as described in Example 1 were divided into five groups (groups 1-5). Group 1 (7 mice) were administered with vehicle (PBS). Group 2 (7 mice), group 3 (8 mice), group 4 (8 mice), group 5 (8 mice) were each administered with NT-4/5 at the doses of 2 mg/kg, 5 mg/kg, 10 mg/kg, and 20 mg/kg, respectively. Both the vehicle and NT-4/5 were administered to each group of the mice subcutaneously once daily for five days. One day before beginning the treatment (T0), blood samples were collected from the mice as described previously for the determination of baseline levels of serum biomarkers (glucose, triglyceride, and cholesterol). Similarly, at day 6 (T6), blood samples were collected for the determination of serum biomarker levels. The blood samples were treated in the same manner as described in Example 1.
From two days before the treatment (T-1) to day 6 (T6), individual food intakes of the mice were measured daily. Individual body weights were also measured daily from 6 days before the treatment (T-5) to day 7 (T7).

[1] = tested on: NONcNZO-10 polygenic obese and diabetic mice; assay: Non-fasting blood glucose and HbA1c in polygenic obese and diabetic mice NONcNZO-10 (Example 3); assay type: in vivo; settings: 2 or 10 mg/kg s.c. daily; dose dependent
Description: Test animals: 19 male NONcNZO-10 polygenic obese and diabetic mice from Jackson Laboratory (See Leiter et al., Diabetes 53 (Suppl. 1): S4-S11, 2004) at 9 weeks of age weighing in the range of 28-35 g were used in this study.
Administration of NT-4/5: NT-4/5 was obtained from Genentech Inc.
The mice were divided into 3 groups of equivalent body weight and baseline glucose distribution (6-7 mice per group). […] Seven days before starting the treatment (day −7), blood samples were collected from the mice as described previously for the determination of baseline levels of blood glucose and triglyceride. After the treatment started, blood samples were collected weekly to determine glucose and triglyceride levels as described in previous examples. Body weight and food intake were monitored 5 days a week through out the entire study.

[2] = tested on: NONcNZO-10 polygenic obese mice; assay: Food intake in NONcNZO-10 mice (Example 4, Table 20); assay type: in vivo
Description: Test animals: 40 male NONcNZO-10 polygenic obese mice obtained from Jackson Laboratory at 10 weeks of age weighing in the range of 26-32 g were used in this study.
Administration of NT-4/5: NT-4/5 was produced in E. coli as descried in U.S. Pat. No. 6,184,360. The mice were divided into 6 groups of equivalent body weight and baseline blood glucose distribution (6-7 mice per group). […] A “paired-fed” control group received daily injection of vehicle, but were only fed with the same amount of food the 3 mg/kg group consumed the previous day. On the day when the treatment started (day 1), a baseline blood samples were collected for measuring glucose and triglyceride. Triglyceride level was measured on day 10. At the end of the study (day 12), a terminal blood sample was collected to determine glucose, triglyceride, electrolytes (Na, K, Cl), testoterone, corticosterone, thyroid hormone (total T4) and thyroid stimulating hormone (TSH) levels. Electrolytes, free testosterone, T4 and TSH levels of serum samples were measured by AniLytics (Gaithesburg, M.D) according to the standard protocols employed by the vendor. Other analytes were measured as described above. Body weight, food intake were monitored 5 days per week through out the entire study. Daily water intake was measured from day 5 through day 7.

human TrkB = molecular target: T1, human TrkB (Homo sapiens, UniProt Q16620); assay: Receptor tyrosine phosphorylation (KIRA) in TrkB expressing cell line; assay type: cell-based
T1 construct: expressed in transfected cells
Description: Method of making pegylated NT-4/5 (S50C): The native form of NT-4/5 used in this study was produced according to the method described in U.S. Pat. No. 6,184,360. A site-directed pegylated NT-4/5 was also produced. The structure of NT-4/5 in complex with domain 5 of TrkB was examined to find amino acid side chains that would be surface available and unlikely to interfere with natural disulfide bonds and also unlikely to interfere in either the interactions between the monomer subunits of NT-4/5 or the TrkB domain 5 to create a PEG attaching site. […] […] Mutant proteins were expressed in E. coli, solubilized, extracted, purified and refolded as the native NT-4/5. To pegylate the refolded NT4-S50C, NT4-Q105C, and NT-4-E67C, first a mild reduction with 0.1 mM DTT (dithiothreitol) was performed. Excess DTT was removed by dialysis against 50 mM sodium acetate at pH 6, then a 5 molar excess of mPEG-maleimide (M. W. of 10,000 Da, SunBio, Inc., South Korea) was incubated with the protein at 37° C. for several days with gentle agitation. Pegylated protein, non-pegylated protein and unreacted PEG were separated via ion exchange or size exclusion chromatography.
Assays of TrkB specific activation by pegylated NT-4/5: Stable cell lines expressing human TrkA, TrkB or TrkC were used to determine the functional activity, i.e. receptor phosphorylation, of NT-4/5 and pegylated NT-4/5 as previously described (Sadick et al. Experimental Cell Research 234: 354-361, 1997).
Assays of TrkB specific activation by pegylated NT-4/5: Stable cell lines expressing human TrkA, TrkB or TrkC were used to determine the functional activity, i.e. receptor phosphorylation, of NT-4/5 and different forms of pegylated NT-4/5 as previously described (Sadick et al. Experimental Cell Research 234: 354-361, 1997).

T1 sequence (Q16620 32-822): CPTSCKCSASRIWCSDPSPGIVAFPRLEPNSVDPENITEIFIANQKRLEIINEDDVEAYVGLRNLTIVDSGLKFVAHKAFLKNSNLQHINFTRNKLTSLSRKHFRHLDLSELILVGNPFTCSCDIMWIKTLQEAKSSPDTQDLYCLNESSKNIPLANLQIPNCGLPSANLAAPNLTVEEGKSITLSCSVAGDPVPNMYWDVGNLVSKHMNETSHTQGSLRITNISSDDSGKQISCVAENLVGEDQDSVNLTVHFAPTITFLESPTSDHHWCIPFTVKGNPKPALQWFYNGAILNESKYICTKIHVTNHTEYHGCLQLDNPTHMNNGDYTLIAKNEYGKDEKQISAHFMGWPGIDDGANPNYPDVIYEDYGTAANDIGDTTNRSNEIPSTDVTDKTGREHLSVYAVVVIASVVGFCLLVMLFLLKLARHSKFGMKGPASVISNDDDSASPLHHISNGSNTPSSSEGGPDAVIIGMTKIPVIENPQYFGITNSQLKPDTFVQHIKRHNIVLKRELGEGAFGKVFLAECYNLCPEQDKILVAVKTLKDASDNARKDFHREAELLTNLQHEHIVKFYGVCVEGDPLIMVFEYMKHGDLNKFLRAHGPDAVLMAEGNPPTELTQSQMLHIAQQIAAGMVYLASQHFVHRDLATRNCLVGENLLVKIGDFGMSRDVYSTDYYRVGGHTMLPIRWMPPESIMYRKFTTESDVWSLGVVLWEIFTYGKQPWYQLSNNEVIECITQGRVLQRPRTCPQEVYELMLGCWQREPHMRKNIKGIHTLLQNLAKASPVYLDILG

B1: NT-4/5: mature human neurotrophin-4/5 (SEQ ID NO:1), obtained from Genentech or produced in E. coli (protein, listed as Homo sapiens)
chain: GVSETAPASRRGELAVCDAVSGWVTDRRTAVDLRGREVEVLGEVPAAGGSPLRQYFFETRCKADNAEEGGPGAGGGGCRGVDRRHWVSECKAKQSYVRALTADAQGRVGWRWIRIDTACVCTLLSRTGRA
- body weight as compared to vehicle (db/db mice; 2, 5, 10 and 20 mg/kg): significantly decreased body weight
- body weight (db/db mice; NT-4/5 2 mg/kg, Day 1): 39.66
- percentage change in body weight (db/db mice; NT-4/5 2 mg/kg, Day 1): 101.83%
- body weight (db/db mice; NT-4/5 2 mg/kg, Day 3): 38.96
- percentage change in body weight (db/db mice; NT-4/5 2 mg/kg, Day 3): 98.27%
- body weight (db/db mice; NT-4/5 2 mg/kg, Day 5): 38.17
- percentage change in body weight (db/db mice; NT-4/5 2 mg/kg, Day 5): 96.24%
- body weight (db/db mice; NT-4/5 2 mg/kg, Day 7): 37.50
- percentage change in body weight (db/db mice; NT-4/5 2 mg/kg, Day 7): 94.57%
- body weight (db/db mice; NT-4/5 2 mg/kg, Day −1): 38.94
- body weight (db/db mice; NT-4/5 5 mg/kg, Day 1): 41.03
- percentage change in body weight (db/db mice; NT-4/5 5 mg/kg, Day 1): 101.51%
- body weight (db/db mice; NT-4/5 5 mg/kg, Day 3): 39.26
- percentage change in body weight (db/db mice; NT-4/5 5 mg/kg, Day 3): 95.71%
- body weight (db/db mice; NT-4/5 5 mg/kg, Day 5): 38.48
- percentage change in body weight (db/db mice; NT-4/5 5 mg/kg, Day 5): 93.79%
- body weight (db/db mice; NT-4/5 5 mg/kg, Day 7): 37.00
- percentage change in body weight (db/db mice; NT-4/5 5 mg/kg, Day 7): 90.15%
- body weight (db/db mice; NT-4/5 5 mg/kg, Day −1): 40.41
- body weight (db/db mice; NT-4/5 10 mg/kg, Day 1): 39.99
- percentage change in body weight (db/db mice; NT-4/5 10 mg/kg, Day 1): 101.07%
- body weight (db/db mice; NT-4/5 10 mg/kg, Day 3): 38.49
- percentage change in body weight (db/db mice; NT-4/5 10 mg/kg, Day 3): 96.28%
- body weight (db/db mice; NT-4/5 10 mg/kg, Day 5): 37.35
- percentage change in body weight (db/db mice; NT-4/5 10 mg/kg, Day 5): 93.43%
- body weight (db/db mice; NT-4/5 10 mg/kg, Day 7): 36.04
- percentage change in body weight (db/db mice; NT-4/5 10 mg/kg, Day 7): 90.14%
- body weight (db/db mice; NT-4/5 10 mg/kg, Day −1): 39.58
- body weight (db/db mice; NT-4/5 20 mg/kg, Day 1): 40.73
- percentage change in body weight (db/db mice; NT-4/5 20 mg/kg, Day 1): 100.31%
- body weight (db/db mice; NT-4/5 20 mg/kg, Day 3): 39.10
- percentage change in body weight (db/db mice; NT-4/5 20 mg/kg, Day 3): 96.01%
- body weight (db/db mice; NT-4/5 20 mg/kg, Day 5): 37.71
- percentage change in body weight (db/db mice; NT-4/5 20 mg/kg, Day 5): 92.60%
- body weight (db/db mice; NT-4/5 20 mg/kg, Day 7): 36.00
- percentage change in body weight (db/db mice; NT-4/5 20 mg/kg, Day 7): 88.38%
- body weight (db/db mice; NT-4/5 20 mg/kg, Day −1): 40.60
- long term glycemic control, HbA1c levels [1]: improved long term glycemic control
- non-fasting blood glucose level [1]: reduced non-fasting blood glucose level
- food intake ([2]; 3 mg/kg): a significant reduction in food intake
- food intake ([2]; dose dependent manner): reduced
- receptor tyrosine phosphorylation of TrkB-expressing cell line (human TrkB): increased receptor tyrosine phosphorylation
